Results reported in the emibetuzumab library of Makowski et al. (2022).

B1: VH:VL chains; a variant is named by its letters at X, in order (parent)
chain 1: QVQLVQSGAEVKKPGASVKVSCKASGYTFTDYXMHWVRQAPGQGLEWMGXVNPNXXXTTYNQKFEGRVTMTTDTSTSTAYMELRSLRSDDTAVYYCARXNXLDXWGQGTTVTVSS
chain 2: DIQMTQSPSSLSASVGDRVTITCSVSSSVSSIYLHWYQQKPGKAPKLLIYSTSNLASGVPSRFSGSGSGTDFTLTISSLQPEDFATYYCQVYSGYPLTFGGGTKVEIK

Variants of: B1
Test: yeast display scFab, FACS + sequencing
Outline: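 Heavy-chain CDR mutant scFab yeast surface library, FACS-sorted after labelling with biotinylated ovalbumin (260 μg/mL in PBSB, 3 h, room temperature) or soluble membrane proteins (130 μg/mL, 20 min on ice), plus anti-Myc. Gates collected the top 25% and bottom 10% of binders, and samples from two replicates were deep sequenced. Non-specific binding call: a sequence was positive if found in ≥3 of 4 positive samples (membrane protein and ovalbumin pooled) and no negatives, and negative by the converse rule.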

Variant	non-specific binding call
YAAGASVD	no binding
YAARAALD	binds
DAARGSSV	no binding
FAEGAAGD	no binding
VAATAAGA	no binding
YAARGAAV	binds
YAEESSAD	no binding
AAEGGYAV	binds
VAAKSAAA chain 1 R38K	no binding
YAARAAVD	binds
DAAGADWY	no binding
FAEGASSS	no binding
DAAKNDAV	no binding
YAEESDGS	no binding
DAATADSS	no binding
SAAGGAAV chain 1 L45S	no binding
YAAGSFGY	binds
YAAGSSWD	binds
FAAKTAAA	binds
DAEGDDGA	no binding
YAAETDVF	no binding
FAEGDDVY	no binding
FAEGDDVA	no binding

Variant	non-specific binding call
FAEGDDVV	no binding
DAEATSWV	no binding
YAAGGDGV	no binding
YAAKTAAA	binds
YAEESSSA	no binding
DAAGAAGV	no binding
SAARDAVA	no binding
DAEGDAGD	no binding
DAEATSLV	no binding
DAATAYGS	binds
YAEGDAAD	no binding
VAAAGAAV	no binding
YAAAAFGY	binds
YAEESDVA	no binding
YAEESDWV	no binding
SAEGDAAD	no binding
SAAGSVWY	no binding
DAEATDGA	no binding
SAEATDLY	no binding
YAAKSDGY	binds
VAAKNDGA	no binding
VAATASWV	no binding
VAEEDAGY	no binding

Variant	non-specific binding call
DAARAVSS	binds
SAAGGAAD chain 1 L45S	no binding
VAARGFGS	no binding
DAEESDGA	no binding
SAAGGDGV chain 1 L45S	no binding
SAEGGSSA	no binding
DAARGAAA	no binding
SAAGGAGA chain 1 L45S	no binding
YAAGSDVY	no binding
FAAAGFVA	binds
VAATADSS	no binding
FAARDSGA	no binding
AAAGGSWS	binds
DAARGDAA	no binding
DAARGDAV	no binding
SAAGGASD chain 1 L45S	no binding
YAAGGFAY	binds
DAARGDGA	no binding
DAARGDGV	no binding
YAEATDLY	no binding
VAATGVSD	binds
VAEKDDGS	no binding
FAAGGAWA	binds

Variant	non-specific binding call
VAATADAV	no binding
AAEGDAAD	no binding
VAARGAAV	no binding
FAAGSYAV	binds
DAEATDVA	no binding
FAEGSYAF	binds
FAARAFGV	binds
VAEGGYAV	binds
SAEEDDVY	no binding
AAARNFLF chain 1 V68I	binds
FAAGGSGD	binds
YAARGSAA	binds
YAAKNDGA	no binding
SAAGADWS	no binding
VAARGDAA	no binding
SAAGGDVA chain 1 L45S	no binding
DAEGGSLD	no binding
YAATADSS	no binding
YAEGGYGV chain 1 V68I	binds
DAARGDSA	no binding
YAARASGF	binds
VAATADVA	no binding
YAARGAWD	binds

Variant	non-specific binding call
DAARGDVV	no binding
VAEATDLY	no binding
FAATDSVS	binds
DAAGASVD	no binding
VAEGDAAD	no binding
FAAETDVF	no binding
FAAGGAAS	binds
YAAGGDVA	no binding
SAARDFWV	no binding
VAEAAVGD	binds
DAEEDAGY	no binding
SAEKDDGS	no binding
FAEGAAAV	no binding
FAARSYGD	binds
FAAGSSGS	binds
DAARGAGD	no binding
FAEGDDSA	no binding
YAEESAGD	no binding
YAEGASSF	no binding
YAEEGVGY	binds
YAEKDAGD	no binding
YAEESSGV	no binding
